{
  "source": "patent US20240271091A1",
  "about": "(University of Pennsylvania, published 2024)",
  "molecular_target": "BSA (UniProt P02769 25-607)",
  "assay": "UV photocrosslinking of hIgG2 in the presence of BSA",
  "note": "No end group written: not given here.",
  "data": [
    {"binder": "photoreactive Protein G (pAbBD), BPA position not stated (designed binder, also: contains benzoylphenylalanine (BPA), position not given here) MTFKLIINGKTLKGEITIEAVDAAEAEKIFKQYANDYGIDGEWTYDDATKTFTVTE", "values": [
      {"measurement": "binding result", "value": "no binding (tested: 1% BSA solution (200-times molar excess))"}
    ]}
  ]
}
